Experimental data from PMC12808100 (Nature Communications, 2025).
Blank lines part the entries; values can stand above or below the binder they belong to. *: point of attachment. carboxyfluorescein = carboxyfluorescein on the N-terminus (no linker); Biotin = O=C1N[C@H]2[C@H](CS[C@H]2CCCCC(=O)*)N1; TTDS = Trioxatridecan-succinamic acid linker

Experiments:
[1] = biological target: T1, His6-AviTag-MBP-TEV-POLE2 (human, UniProt P56282 1-527, biotin on the AviTag (BirA co-expressed, biotin in the medium)); assay: native holdup (nHU) titration with dot blot; purified His6-avi-MBP-tagged POLE2 as bait on resin; extracts of HEK293T cells transfected with HA-tagged full length proteins; 4 °C, 2 h; anti-HA dot blot; apparent; settings: one partner purified
T1 construct: POLE2, residues 1-527; a TEV site lies between MBP and POLE2; also called His6-avi-MBP-tagged POLE2; avi-His6-MBP-POLE2; source: E. coli BL21(DE3), co-expressed with BirA, purified (HisTrap, MBPtrap, Q HP); not shown: His6, N-terminal, kept; AviTag, N-terminal, kept; MBP, N-terminal, kept
T1 sequence (P56282 whole entry, the tested form may be a part): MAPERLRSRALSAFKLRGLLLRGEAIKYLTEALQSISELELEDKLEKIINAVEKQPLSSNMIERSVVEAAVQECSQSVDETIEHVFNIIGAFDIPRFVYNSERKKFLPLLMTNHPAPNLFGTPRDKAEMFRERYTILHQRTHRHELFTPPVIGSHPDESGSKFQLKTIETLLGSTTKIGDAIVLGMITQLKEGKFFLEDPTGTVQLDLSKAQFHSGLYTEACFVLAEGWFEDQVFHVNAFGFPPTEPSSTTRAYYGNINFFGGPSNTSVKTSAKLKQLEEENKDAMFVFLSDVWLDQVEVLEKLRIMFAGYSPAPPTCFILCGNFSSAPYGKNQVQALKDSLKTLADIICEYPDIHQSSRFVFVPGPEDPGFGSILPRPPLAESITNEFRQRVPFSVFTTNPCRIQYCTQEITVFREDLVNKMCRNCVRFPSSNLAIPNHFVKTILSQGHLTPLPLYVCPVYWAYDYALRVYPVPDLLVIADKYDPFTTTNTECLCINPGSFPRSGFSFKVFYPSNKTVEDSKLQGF

[2] = biological target: T1, His6-AviTag-MBP-TEV-POLE2; assay: fluorescence polarisation; direct; dilution series of MBP-POLE2 added to 50 nM fluoDONSON peptide; 20 mM Hepes pH 7.5, 150 mM NaCl, 0.5 mM TCEP, 0.01% Tween 20; settings: both partners purified
[3] = biological target: T1, His6-AviTag-MBP-TEV-POLE2; assay: fluorescence polarisation; competitive; dilution series of the non-fluorescent DONSON peptide added to 50 nM fluoDONSON and 3.85 μM POLE2 protein; same buffer as the direct experiment; settings: both partners purified
HA-POLE2 = biological target: T2, HA-POLE2 (human, UniProt P56282 1-527); assay: native holdup (nHU) titration with dot blot; DONSON_71-88-saturated streptavidin resin mixed with control resin at various proportions; extracts of HEK293T cells expressing HA-tagged POLE2 variants; 4 °C, 2 h; depletion quantified with an antibody against the HA tag; apparent; settings: one partner purified
T2 construct: POLE2, residues 1-527; also called HA-POLE2 wild type; source: HEK293T, transfected, in cell extract; not shown: HA, N-terminal, kept
T2 sequence (P56282 whole entry, the tested form may be a part): as above

Kd [2]: 16 µM
B3: fluoDONSON peptide (residues 71-88) (peptide)
peptide: carboxyfluorescein-GPAAARRNPFARLDNRPR-NH2
notes: DONSON, residues 71-88; also called fluorescein-labeled DONSON_71-88 peptide; fluorescent NPF motif peptide; source: synthetic peptide, HPLC purified

Kd [3]: 13 µM
Kd (HA-POLE2): 0.28 µM
B4: NPF motif peptide of DONSON (residues 71-88) (peptide)
peptide: {Biotin-TTDS}-GPAAARRNPFARLDNRPR-NH2
notes: Protein downstream neighbor of Son (DONSON), residues 71-88; also called DONSON_71-88; DONSON NPF motif; source: synthetic peptide (ABI 443 A synthesizer, Fmoc), HPLC purified

Further lines, the binder ahead of its results:

B1: HA-TTF2, full length, N-terminal NPF motif mutated to KAF (natural protein, human, UniProt Q9UNY4 1-1162, looked up)
chain: MEEVRCPEHGTFCFLKTGVRDGPNKGKSFYVCRADTCSFVRATDIPVSHCLLHEDFVVELQGLLLPQDKKEYRLFFRCIRSKAEGKRWCGSIPWQDPDSKEHSVSNKSQHASETFHHSSNWLRKAFKVLDKNQEPALWKQLIKGEGEEKKADKKQREKGDQLFDQKKEQKPEMMEKDLSSGLVPKKKQSVVQEKKQEEGAEIQCEAETGGTHKRDFSEIKSQQCQGNELTRPSASSQEKSSGKSQDVQRESEPLREKVTQLLPQNVHSHNSISKPQKGGPLNKEYTNWEAKETKAKDGPSIQATQKSLPQGHFQERPETHSVPAPGGPAAQAAPAAPGLSLGEGREAATSSDDEEEDDVVFVSSKPGSPLLFDSTLDLETKENLQFPDRSVQRKVSPASGVSKKVEPSDPVARRVYLTTQLKQKKSTLASVNIQALPDKGQKLIKQIQELEEVLSGLTLSPEQGTNEKSNSQVPQQSHFTKTTTGPPHLVPPQPLPRRGTQPVGSLELKSACQVTAGGSSQCYRGHTNQDHVHAVWKITSEAIGQLHRSLESCPGETVVAEDPAGLKVPLLLHQKQALAWLLWRESQKPQGGILADDMGLGKTLTMIALILTQKNQEKKEEKEKSTALTWLSKDDSCDFTSHGTLIICPASLIHHWKNEVEKRVNSNKLRVYLYHGPNRDSRARVLSTYDIVITTYSLVAKEIPTNKQEAEIPGANLNVEGTSTPLLRIAWARIILDEAHNVKNPRVQTSIAVCKLQACARWAVTGTPIQNNLLDMYSLLKFLRCSPFDEFNLWRSQVDNGSKKGGERLSILTKSLLLRRTKDQLDSTGRPLVILPQRKFQLHHLKLSEDEETVYNVFFARSRSALQSYLKRHESRGNQSGRSPNNPFSRVALEFGSEEPRHSEAADSPRSSTVHILSQLLRLRQCCCHLSLLKSALDPMELKGEGLVLSLEEQLSALTLSELRDSEPSSTVSLNGTFFKMELFEGMRESTKISSLLAELEAIQRNSASQKSVIVSQWTNMLKVVALHLKKHGLTYATIDGSVNPKQRMDLVEAFNHSRGPQVMLISLLAGGVGLNLTGGNHLFLLDMHWNPSLEDQACDRIYRVGQQKDVVIHRFVCEGTVEEKILQLQEKKKDLAKQVLSGSGESVTKLTLADLRVLFGI
notes: TTF2, residues 1-1162; only the N-terminal NPF motif mutated; also called TTF2 mutant; source: HEK293T, transfected, in cell extract; not shown: HA, N-terminal, kept
fold weaker affinity than the wild type [1]: ~4 fold

B2: HA-ERCC6L, full length, NPF motif mutated to KAF (natural protein, human, UniProt Q2NKX8 1-1250, looked up)
chain: MEASRRFPEAEALSPEQAAHYLRYVKEAKEATKNGDLEEAFKLFNLAKDIFPNEKVLSRIQKIQEALEELAEQGDDEFTDVCNSGLLLYRELHNQLFEHQKEGIAFLYSLYRDGRKGGILADDMGLGKTVQIIAFLSGMFDASLVNHVLLIMPTNLINTWVKEFIKWTPGMRVKTFHGPSKDERTRNLNRIQQRNGVIITTYQMLINNWQQLSSFRGQEFVWDYVILDEAHKIKTSSTKSAICARAIPASNRLLLTGTPIQNNLQELWSLFDFACQGSLLGTLKTFKMEYENPITRAREKDATPGEKALGFKISENLMAIIKPYFLRRTKEDVQKKKSSNPEARLNEKNPDVDAICEMPSLSRKNDLIIWIRLVPLQEEIYRKFVSLDHIKELLMETRSPLAELGVLKKLCDHPRLLSARACCLLNLGTFSAQDGNEGEDSPDVDHIDQVTDDTLMEESGKMIFLMDLLKRLRDEGHQTLVFSQSRQILNIIERLLKNRHFKTLRIDGTVTHLLEREKRINLFQQNKDYSVFLLTTQVGGVGLTLTAATRVVIFDPSWNPATDAQAVDRVYRIGQKENVVVYRLITCGTVEEKIYRRQVFKDSLIRQTTGEKKNPFRYFSKQELRELFTIEDLQNSVTQLQLQSLHAAQRKSDIKLDEHIAYLQSLGIAGISDHDLMYTCDLSVKEELDVVEESHYIQQRVQKAQFLVEFESQNKEFLMEQQRTRNEGAWLREPVFPSSTKKKCPKLNKPQPQPSPLLSTHHTQEEDISSKMASVVIDDLPKEGEKQDLSSIKVNVTTLQDGKGTGSADSIATLPKGFGSVEELCTNSSLGMEKSFATKNEAVQKETLQEGPKQEALQEDPLESFNYVLSKSTKADIGPNLDQLKDDEILRHCNPWPIISITNESQNAESNVSIIEIADDLSASHSALQDAQASEAKLEEEPSASSPQYACDFNLFLEDSADNRQNFSSQSLEHVEKENSLCGSAPNSRAGFVHSKTCLSWEFSEKDDEPEEVVVKAKIRSKARRIVSDGEDEDDSFKDTSSIKAFNTSLFQFSSVKQFDASTPKNDISPPGRFFSSQIPSSVNKSMNSRRSLASRRSLINMVLDHVEDMEERLDDSSEAKGPEDYPEEGVEESSGEASKYTEEDPSGETLSSENKSSWLMTSKPSALAQETSLGAPEPLSGEQLVGSPQDKAAEATNDYETLVKRGKELKECGKIQEALNCLVKALDIKSADPEVMLLTLSLYKQLNNN
notes: ERCC6L, residues 1-1250; also called mutated version of ERCC6L; source: HEK293T, transfected, in cell extract; not shown: HA, N-terminal, kept
fold weaker affinity than the wild type [1]: 10 fold
